The target in experiment [1] is T1, human CD137 expressed on the surface of CHO cells (human, UniProt Q07011 24-255).
T1 construct: Also used for the Jurkat reporter cells that express human CD137 (functional rows); also called CHO human CD137 cells; CHO huCD137
Kind of experiment: FMAT ligand inhibition, CD137 Ligand on CHO human CD137 cells. As for the experimental part:
In parallel to the binding assay, periplasmic extracts were tested for their ability to inhibit the interaction of human CD137 ligand protein with CHO human CD137 cells in an FMAT format. Total binding controls containing diluted periplasmic extract sample buffer and non-specific binding controls containing excess non-Fc tagged competitor were set up on each plate for data normalisation. Fluorescence signal was measured using the TTP Mirrorball and the FL2 median mean fluorescence intensity of gated used for the data normalisation. The data was expressed as a % of the total binding control (% control) after subtraction of the background signal determined from the non-specific binding control wells.
The ability of purified Humabody VH to inhibit the binding of CD137 Ligand to CHO human CD137 cells was measured in the FMAT ligand inhibition assay essentially as described in Example 6. VH inhibited the binding of human CD137 Ligand to human CD137.

The target of experiment [2] is T2, human CD137-human Fc chimeric protein (Acro Biosystems cat no. 41B-H5258) (human, UniProt Q07011 24-186).
T2 construct: Bought protein; The Octet Protein G and Biacore experiments name no catalogue number; also called human CD137Fc recombinant protein; human CD137-Fc recombinant protein; not shown: human IgG1 Fc tag
Kind of experiment: SPR (Biacore T200), single cycle kinetics, CD137-Fc captured on Protein G chip, mean ± SD; human CD137Fc. The protocol: (§1) The Biacore T200 instrument was used to study the interaction between VH with human and rhesus CD137-human IgG1 Fc tagged protein by surface plasmon resonance (SPR). Single cycle kinetics assays used to evaluate the kinetics and affinity of the interaction. Experiments were performed at 25° C. in HBS-EP+ assay buffer with a flow rate of 30 μl/minute. A Protein G chip was used to capture the Fc tagged recombinant CD137 diluted to 2 μg/ml to one of the flow cells over 7 seconds. A second flow cell without any captured CD137 was used as the reference cell. A five point, three-fold dilution series of VH was made with a top concentration of 60 nM. The binding kinetics were followed by flowing these over the chip surface. The contact time for each of the binding steps was 180 seconds and the dissociation step was 1800 and 3600 seconds for rhesus and human CD137 respectively. After each run, the sensors were regenerated with glycine pH 1.5 to remove the captured CD137. The data was fitted to a 1:1 binding model after double reference subtraction using the Biacore T200 Evaluation software.
In general terms: Surface plasmon resonance follows binding to a sensor surface in real time, without labels.

For experiment [3], the target named is T3, rhesus CD137Fc recombinant protein (Sino Biologicals cat no. 90847-K02H) (rhesus; human, UniProt H9Z8K9 24-186).
T3 construct: Bought protein; also called rhesus CD137-human IgG1 Fc tagged protein; not shown: human IgG1 Fc tag
T3 sequence: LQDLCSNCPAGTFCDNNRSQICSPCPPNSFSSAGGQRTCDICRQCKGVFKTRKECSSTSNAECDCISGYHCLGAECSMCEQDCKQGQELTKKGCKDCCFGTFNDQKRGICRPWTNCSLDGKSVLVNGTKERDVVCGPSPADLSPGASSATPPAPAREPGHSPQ
Kind of experiment: SPR (Biacore T200), single cycle kinetics, rhesus CD137-Fc captured on Protein G chip, mean ± SD; rhesus CD137Fc. As for the experimental part: as §1

The target in experiment [4] is T1, human CD137 expressed on the surface of …. Put plainly: FMAT, CHO human CD137 cells. As for the experimental part: (§2) Binding of His-tagged molecules to CHO human CD137, CHO parent, CHO human PSMA, DU145 PSMA and DU145 parent cells was assessed using Fluorescence Microvolume Assay Technology (FMAT). All reagents were prepared in FMAT assay buffer (pH 7.4) containing PBS, 0.1% Bovine Serum Albumin, 0.05% Sodium Azide. Serially diluted samples were transferred into 384 well black clear-bottomed assay plates (Costar cat. no. 3655) and incubated for a minimum of 2 hours at room temperature with 1.5 nM Anti-His (Millipore cat. no. 05-949), […] Goat Anti-Mouse Alexa Fluor-488 (Jackson ImmunoResearch cat. no. 115-545-071) and 2000 cells/well pre-stained with DRAQ5 (Thermo Scientific cat. no. 62251). Fluorescence emission was then measured on the TTP Mirrorball plate reader in the FL2 (502 nm-537 nm) and FL5 (677-800 nm) channels following excitation at 488 nm and 640 nm. Data was gated on FL5 perimeter and peak intensity and the FL2 median mean fluorescence intensity of the gated data used for determination of VH binding. Monovalent CD137 specific Humabody® VH, bispecific and trispecific molecules with a CD137 binding arm bound to CHO CD137 expressing cells. Monovalent PSMA specific Humabody® VH, bispecific and trispecific molecules with a PSMA binding arm bound to PSMA expressing cells.

Experiment [5] deals with T4, human PSMA expressed on cells (human, UniProt Q04609 1-750).
T4 construct: One molecule for both cell lines (CHO human PSMA, DU145 PSMA); the cell line stands under assay; also called CHO human PSMA; CHO PSMA
Put plainly: FMAT, DU145 PSMA cells. As for the experimental part:
as §2

The target of experiment [6] is T4, human PSMA expressed on cells. Kind of experiment: dual binding cell ELISA: the titrated step is the binding of the bispecific to CHO human PSMA cells; readout is bound CD137huFc (fixed 1 nM) with anti human Fc-HRP, so the value reflects dual engagement. As for the experimental part:
Dual target engagement of CD137 and PSMA by the bispecific molecules was assessed using an ELISA format. CHO-PSMA cells (20000/well) were seeded into 96 well plates (Greiner cat no. 353872) in Hams F12 supplemented with L-Glutamine+Blasticidin+Tetracycline and incubated at 37° C. with 5% CO₂ overnight. All subsequent steps were performed at room temperature and included washes with PBS between each step. Plates were blocked with PBS/0.1% BSA for 1 hour then serially diluted Humabody® VH were added and allowed to bind for 1 hour. Following removal of unbound VH, 1 nM CD137huFc (Acro Biosystems cat no. 41B-H5258) was added to the wells and incubated for 1 hour. A 1:3000 dilution of Anti-huFc-HRP (Jackson ImmunoResearch cat no. 109-035-098) was subsequently added for 1 hour and plates developed by addition of TMB. The reaction was stopped by addition of 0.5M sulphuric acid and plates read on BMG PheraStar at Absorbance 450 nm.
On the technique in general: ELISA stands for enzyme-linked immunosorbent assay.

In experiment [7] the target is T5, PSMA-his (R&D Systems cat no. 4234-ZN) (human, UniProt Q04609 44-750).
T5 construct: Bought protein; also called Human PSMA; not shown: His tag
Put plainly: BLI (Octet RED384), PSMA-his amine-coupled to AR2G sensors, 1:1 model. The protocol: (§3) The kinetics of monovalent and bispecific Humabody VH were determined on a ForteBio Octet RED 384 instrument. To study the interaction with the antigens, CD137-Fc tag protein (Acro Biosystems cat no. 41B-H5258) or PSMA-his (R&D Systems cat no. 4234-ZN) was immobilised onto AR2G biosensors (ForteBio cat no. 18-5082) by amine coupling. Monovalent VH and bispecific molecules were serially diluted (typically 1:2 dilution series starting between 12-25 nM, at the highest concentration) in kinetics buffer (0.1% BSA, 0.02% Tween, 1×PBS) and binding to the immobilised proteins was studied during the association and dissociation phases. PSMA binding was measured using 180 seconds association and 600 seconds dissociation phases. CD137 binding was measured 180 seconds association and 600 seconds dissociation phases. Reference subtracted data were fitted to a 1:1 binding model using the ForteBio Octet Data Analysis software.
On the technique in general: Biolayer interferometry detects binding as a change in optical thickness at a sensor tip.

The target in experiment [8] is T4, human PSMA expressed on cells. Put plainly: FMAT, CHO human PSMA cells. The protocol:
as §2

The target of experiment [9] is T6, CD137 on pre-stimulated human CD8+ T cells (human, UniProt Q07011 24-255).
T6 construct: also called pre-stimulated CD8+ cells; primary T cells
Kind of experiment: flow cytometry, PMA/ionomycin-stimulated human CD8+ T cells, mean of 2-3 donors. As for the experimental part: Binding to primary T cells was measured using flow cytometry. Peripheral blood mononuclear cells (PBMCs) were isolated from human blood by density gradient centrifugation then CD8+ T cells purified using a negative selection isolation kit according to the manufacturer's protocol (Miltenyi Biotech cat no 130-042-401). T-cells were stimulated PMA/Ionomycin for 48-72 hours in RPMI media supplemented with 10% FBS, 2 mM Glutamine, 1× Pen/Strep. Cells were transferred into 96 well plates, blocked for 10 mins with staining buffer (PBS/1% BSA/0.05% Sodium Azide) then incubated with serially diluted VH in staining buffer (PBS/1% BSA) for 30 mins-1 hour at 4° C. Cells were washed by centrifugation then VH binding detected using Anti His antibody (Millipore 05-949) and Goat Anti Mouse Alexa Fluor-488 (Jackson ImmunoResearch cat no. 115-545-071). A Live Dead near IR stain (Molecular Probes cat no. L10119) was used for discrimination of live cells. After further washing cells were fixed and fluorescence measured by flow cytometry.

In experiment [10] the target is T2, human CD137-human Fc chimeric protein …. Put plainly: BLI (Octet RED384), CD137-Fc amine-coupled to AR2G sensors, 1:1 model. As for the experimental part:
as §3

In general, IC50 refers to the concentration needed to halve the response being measured. Usually Kd stands for a measure of binding affinity in units of concentration. Broadly, the koff is a measure of how fast the partners let go of each other. Broadly, the kon is the second-order rate constant of association. The term EC50 denotes the concentration needed to bring the measured effect to its halfway point. Lower therefore signals an effect from little substance. What is called EC50 (read off the curve) is the midpoint of the concentration-response curve. A lower EC50 (read off the curve) goes with higher potency in that assay.

T5 sequence (Q04609 44-750 limits assumed): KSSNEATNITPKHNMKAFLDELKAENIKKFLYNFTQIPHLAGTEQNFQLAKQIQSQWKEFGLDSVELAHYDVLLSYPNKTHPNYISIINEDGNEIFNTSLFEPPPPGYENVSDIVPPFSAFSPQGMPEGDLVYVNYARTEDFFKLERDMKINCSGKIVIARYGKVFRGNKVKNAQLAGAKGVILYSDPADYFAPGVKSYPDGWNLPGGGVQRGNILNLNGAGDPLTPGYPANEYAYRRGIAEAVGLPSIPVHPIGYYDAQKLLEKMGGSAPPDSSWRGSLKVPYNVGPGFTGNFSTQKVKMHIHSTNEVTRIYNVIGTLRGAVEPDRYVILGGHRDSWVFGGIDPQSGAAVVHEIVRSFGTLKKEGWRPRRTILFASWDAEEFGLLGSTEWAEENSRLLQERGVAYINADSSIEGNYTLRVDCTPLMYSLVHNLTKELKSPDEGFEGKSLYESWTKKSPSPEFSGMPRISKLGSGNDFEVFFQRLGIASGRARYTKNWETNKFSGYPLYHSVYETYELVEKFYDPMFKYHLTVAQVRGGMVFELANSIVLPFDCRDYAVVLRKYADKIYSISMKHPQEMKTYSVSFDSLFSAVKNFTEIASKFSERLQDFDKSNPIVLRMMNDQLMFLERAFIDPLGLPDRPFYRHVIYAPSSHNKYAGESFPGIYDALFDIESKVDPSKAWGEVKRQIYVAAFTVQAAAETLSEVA
T1 sequence (Q07011 24-255 limits assumed): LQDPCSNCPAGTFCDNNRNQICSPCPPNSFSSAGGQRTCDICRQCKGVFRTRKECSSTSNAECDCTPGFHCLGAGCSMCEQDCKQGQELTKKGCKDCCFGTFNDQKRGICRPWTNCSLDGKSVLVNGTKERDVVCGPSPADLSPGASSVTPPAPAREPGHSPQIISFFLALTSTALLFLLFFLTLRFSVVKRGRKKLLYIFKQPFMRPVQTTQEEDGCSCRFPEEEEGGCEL
T4 sequence (Q04609 whole entry): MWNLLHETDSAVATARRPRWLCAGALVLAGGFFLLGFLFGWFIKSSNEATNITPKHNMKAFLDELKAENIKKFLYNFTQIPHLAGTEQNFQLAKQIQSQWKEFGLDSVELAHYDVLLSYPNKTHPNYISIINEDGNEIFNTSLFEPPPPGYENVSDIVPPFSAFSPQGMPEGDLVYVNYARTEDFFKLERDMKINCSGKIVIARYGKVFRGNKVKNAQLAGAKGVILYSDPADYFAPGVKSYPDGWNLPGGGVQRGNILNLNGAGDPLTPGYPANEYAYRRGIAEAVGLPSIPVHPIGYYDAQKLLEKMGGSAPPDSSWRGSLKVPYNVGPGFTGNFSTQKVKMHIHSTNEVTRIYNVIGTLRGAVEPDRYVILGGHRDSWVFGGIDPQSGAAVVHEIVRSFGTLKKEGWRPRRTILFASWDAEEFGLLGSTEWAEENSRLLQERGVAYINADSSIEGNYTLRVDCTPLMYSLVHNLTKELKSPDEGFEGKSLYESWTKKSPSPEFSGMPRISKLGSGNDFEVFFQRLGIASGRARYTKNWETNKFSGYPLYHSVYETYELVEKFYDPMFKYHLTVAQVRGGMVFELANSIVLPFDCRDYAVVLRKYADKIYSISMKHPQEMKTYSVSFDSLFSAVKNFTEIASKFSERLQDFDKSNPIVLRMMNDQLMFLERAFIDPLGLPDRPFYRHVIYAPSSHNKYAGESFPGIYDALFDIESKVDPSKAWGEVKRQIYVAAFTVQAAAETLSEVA
T6 sequence (Q07011 24-255 limits assumed): as the sequence (Q07011 24-255 limits assumed) above

B1: Humabody VH 1.113 (VHH)
VH: EVQLVESGGGLVQPGGSLRLSCAASGFTLSNYWMNWVRQAPGKGLEWVANINQDGSERYYVDSVKGRFTISRDNAKNSLYLQMNSLRAEDTAVYYCARGGEGYGVDHYGLDVSGQGTTVTVSSHHHHHH
notes: human single VH domain
Turning to B1, in experiment [1], the IC50 came to 0.73 nM. In addition, in experiment [2], the Kd was determined as 0.085 nM, the koff was found to be 0.0003 s⁻¹ and the kon was found to be 3.6e+06 M⁻¹ s⁻¹. In experiment [3], the Kd is 0.27 nM, the koff was determined as 0.00028 s⁻¹ and the kon was 1.1e+06 M⁻¹ s⁻¹. In [4], the EC50 is 0.09 nM.

B2: 4.1(PSMA-binding VH)-6GS-1.1 (bispecific antibody)
chain: EVQLVESGGGVVQPGRSLRLSCAASGFSFSGYGMHWVRQAPGKGLEWVAYISYDGSNKYYADSVKGRFTISRDNSKNTLYLQMNSLRAEDTAVYYCAKDPAWGLRLGESSSYDFDIWGQGTMVTVSSGGGGSGGGGSGGGGSGGGGSGGGGSGGGGSEVQLVESGGGLVQPGGSLRLSCAASGFTFSSHWMTWFRQAPGKGLEWVAHIKEDGSEKYYEDSVEGRFTVSRDNAKNSVYLQMNSLRAEDTAVYYCARGGDGYSDSHFGVDVWGQGTTVTVSS
notes: tandem VH, PSMA x CD137; also called 4.1-6GS-1.1; not shown: His tag
For the molecule B2, the EC50 in experiment [5] came to 0.21 nM; in [8], 0.19 nM; in experiment [9] it was 0.73 nM; in [4], 0.43 nM. Further, the “EC50 (read off the curve)” value in experiment [6] was around 0.8 nM. In addition, the Kd was 1.3 nM in experiment [7] and 0.73 nM in [10]. Also, the koff in experiment [7] amounted to 0.00054 s⁻¹; in experiment [10], 0.00031 s⁻¹. Further, the kon in [7] stood at 430000 M⁻¹ s⁻¹; in experiment [10], 410000 M⁻¹ s⁻¹. The molecule also yielded an IC50 in [1] of 2.5 nM.

B3: 4.1(PSMA-binding VH)-6GS-2.1 (bispecific antibody)
chain: EVQLVESGGGVVQPGRSLRLSCAASGFSFSGYGMHWVRQAPGKGLEWVAYISYDGSNKYYADSVKGRFTISRDNSKNTLYLQMNSLRAEDTAVYYCAKDPAWGLRLGESSSYDFDIWGQGTMVTVSSGGGGSGGGGSGGGGSGGGGSGGGGSGGGGSEVQLVESGGGLVKPGGSLRVSCAASGFTFSDYYMSWFRQAPGKGLEWVSYISGSGDIIDYADSVKGRFTISRDNAKNSLYLQMNNLRAEDTAVYHCAREDSRLTGTTDFDNWGQGTLVTVSS
notes: tandem VH, PSMA x CD137; also called 4.1-6GS-2.1; not shown: His tag
On to B3, for which the EC50 was determined as 0.39 nM in experiment [5], 0.28 nM in experiment [8], 3 nM in [9] and 0.97 nM in experiment [4]. For the same molecule, the “EC50 (read off the curve)” value in experiment [6] was around 1 nM. Also, the Kd is 0.66 nM in [7] and 4.8 nM in experiment [10]. Moreover, the koff in experiment [7] is 0.00033 s⁻¹; in [10], 0.0026 s⁻¹. The kon amounted to 500000 M⁻¹ s⁻¹ in experiment [7] and 580000 M⁻¹ s⁻¹ in experiment [10]. Besides, the IC50 in [1] amounted to 13 nM.

Source of the values: patent publication US20200362047A1 (CRESCENDO BIOLOGICS, published 2020).
